Measured values reported in PMC3516549 (PLoS Pathogens, 2012).
Values joined by “and” are separate entries in the source; they are usually repeats but may differ in a detail not shown here. Identical values can stand only once.

B1: 1I20 Fab (Fab, V domains shown)
VH: EVQLVESGGGVVQPGGSLRLSCIASAFNLGIFGMHWVRQAPGKGLEWVAFIRYDGGKTFYADSVKGRFTISRDNSKNTLYLQMNSLRTEDTALYYCARDATADYYGPGSYPNWLDPWGQGTLVTVSS
VL: DIRLTQSPATLSVSPGERATLSCRASHSVSRNLAWYQQKPGRAPRLLVYDTSSRATGIPARFSGSGSGTEFTLTISSLQSEDFAVYYCQQYNNWPRTFGQGTKVDIK
notes: also called mAb 1I20; source: HEK 293F, transiently co-transfected, purified (HiTrap Protein G)
B2: 1I20 Fab (Fab, V domains shown)
VH: B1 VH
VL: B1 VL
notes: also called mAb 1I20

How the values were obtained:
[1] = molecular target: recombinant trimerized His-tagged soluble HA of A/South Carolina/1/18 (1918 wt) (Influenza A virus A/South …, UniProt Q9WFX3, strain); test: BLI; […]; 1:1 binding model, […]; conditions: both partners purified
[2] = molecular target: recombinant trimerized His-tagged soluble HA, A/South Carolina/1/18 (1918 wt) (Influenza A virus A/South …, UniProt Q9WFX3, strain); test: BLI; conditions: both partners purified

Row | Binder | Kd [1] | koff [1] | kon [1] | Kd [2] [nM]
1 | B1 | 3.22 nM and 3.46 nM | 0.000375 s⁻¹ and 0.000366 s⁻¹ | 116000 M⁻¹ s⁻¹ and 106000 M⁻¹ s⁻¹ | 
2 | B2 |  |  |  | 3.3
